The source of these data is paper PMC3076674 (Nature structural & molecular biology, 2011).

The experiment deals with T1, MED25 VP16-binding domain (VBD) (human, UniProt Q71SY5 390-553).
T1 sequence (looked up): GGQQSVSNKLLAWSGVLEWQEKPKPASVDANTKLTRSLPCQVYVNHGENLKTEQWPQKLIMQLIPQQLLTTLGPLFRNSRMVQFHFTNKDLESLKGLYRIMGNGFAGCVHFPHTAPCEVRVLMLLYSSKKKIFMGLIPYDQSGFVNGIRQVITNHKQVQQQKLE
Put plainly: ITC.

B1: VP16 TAD (full-length transactivation domain, amino acids 411-490) (domain or fragment, Herpes simplex virus 1, UniProt P06492 411-490, looked up)
chain: STAPPTDVSLGDELHLDGEDVAMAHADALDDFDLDMLGDGDSPGPGFTPHDSAPYGALDMADFEFEQMFTDALGIDEYGG
On to B1, for which the Kd was roughly 50 nM.

For orientation: Kd means a measure of binding affinity in units of concentration. Low readings indicate tighter binding, high ones weaker binding.
